Data from PMC4341239, “High yield purification of full-length functional hERG K^+ channels produced in Saccharomyces cerevisiae” (Microbial Cell Factories, 2015).

Target: the molecule itself
Experiment: SEC; fluorescence size exclusion chromatography (FSEC) on Superose 6 10/300 GL; crude membranes solubilized in FC-12 with cholesteryl-hemisuccinate, with 1 uM Astemizole; FSEC buffer 20 mM TRIS-HCl, 0.15 M NaCl, 0.03% DDM; mass by MW standards, amount of detergent in the complex unknown

B1: hERG-TEV-GFP-His 8 fusion protein (full-length hERG alpha-subunit, Kv11.1) (natural protein, human, UniProt Q12809 1-1159, looked up)
chain: MPVRRGHVAPQNTFLDTIIRKFEGQSRKFIIANARVENCAVIYCNDGFCELCGYSRAEVMQRPCTCDFLHGPRTQRRAAAQIAQALLGAEERKVEIAFYRKDGSCFLCLVDVVPVKNEDGAVIMFILNFEVVMEKDMVGSPAHDTNHRGPPTSWLAPGRAKTFRLKLPALLALTARESSVRSGGAGGAGAPGAVVVDVDLTPAAPSSESLALDEVTAMDNHVAGLGPAEERRALVGPGSPPRSAPGQLPSPRAHSLNPDASGSSCSLARTRSRESCASVRRASSADDIEAMRAGVLPPPPRHASTGAMHPLRSGLLNSTSDSDLVRYRTISKIPQITLNFVDLKGDPFLASPTSDREIIAPKIKERTHNVTEKVTQVLSLGADVLPEYKLQAPRIHRWTILHYSPFKAVWDWLILLLVIYTAVFTPYSAAFLLKETEEGPPATECGYACQPLAVVDLIVDIMFIVDILINFRTTYVNANEEVVSHPGRIAVHYFKGWFLIDMVAAIPFDLLIFGSGSEELIGLLKTARLLRLVRVARKLDRYSEYGAAVLFLLMCTFALIAHWLACIWYAIGNMEQPHMDSRIGWLHNLGDQIGKPYNSSGLGGPSIKDKYVTALYFTFSSLTSVGFGNVSPNTNSEKIFSICVMLIGSLMYASIFGNVSAIIQRLYSGTARYHTQMLRVREFIRFHQIPNPLRQRLEEYFQHAWSYTNGIDMNAVLKGFPECLQADICLHLNRSLLQHCKPFRGATKGCLRALAMKFKTTHAPPGDTLVHAGDLLTALYFISRGSIEILRGDVVVAILGKNDIFGEPLNLYARPGKSNGDVRALTYCDLHKIHRDDLLEVLDMYPEFSDHFWSSLEITFNLRDTNMIPGSPGSTELEGGFSRQRKRKLSFRRRTDKDTEQPGEVSALGPGRAGAGPSSRGRPGGPWGESPSSGPSSPESSEDEGPGRSSSPLRLVPFSSPRPPGEPPGGEPLMEDCEKSSDTCNPLSGAFSGVSNIFSFWGDSRGRQYQELPRCPAPTPSLLNIPLSSPGRRPRGDVESRLDALQRQLNRLETRLSADMATVLQLLQRQMTLVPPAYSAVTTPGPGPTSTSPLLPVSPLPTLTLDSLSQVSQFMACEELPPGAPELPQEGPTRRLSLPGQLGALTSQPLHRHGSDPGS
modifications: N-glycosylated in S. cerevisiae
notes: the fusion is 156 kDa; also called hERG-GFP-His 8; hERG-GFP; source: S. cerevisiae strain PAP1500, induced at 15°C; crude membranes solubilized in FC-12 with cholesteryl-hemisuccinate; not shown: GFP (yEGFP, after a TEV cleavage site), C-terminal, kept; His8, C-terminal, kept
With B1 the “stoichiometry N” value was 4.
